Patent US20230203098A1 (published 2023)
*1 amine or outer side, *2 acyl side, *3 side chain or, on linkers, in order; H or OH if unused. Bridges are numbered along the chain shown (N, C = ends). Primed or numbered codes have the meaning given here. Where no end group is shown, it is not given here. [ ]: non-standard residue; d: D form. Tyr(Me) = COc1ccc(C[C@H](N[*:1])C(=O)[*:2])cc1; NMePhe(3-Cl) = CN[C@@H](Cc1cccc(Cl)c1)C(=O)O; NMeW = CN[C@@H](Cc1c[nH]c2ccccc12)C(=O)O; NMeY = CN[C@@H](Cc1ccc(O)cc1)C(=O)O; PEG11′ = not defined here; Aib = CC(C)(N)C(=O)O

Tests used:
[1] = target: T1, human transferrin receptor (hTfR) (human, UniProt P02786 89-760, limits assumed); test: SPR according to Example 2
T1 construct: hTfR solution immobilised on NTA chip (Ni capture plus EDC/NHS); also called human TfR
T1 sequence (P02786 89-760 limits assumed): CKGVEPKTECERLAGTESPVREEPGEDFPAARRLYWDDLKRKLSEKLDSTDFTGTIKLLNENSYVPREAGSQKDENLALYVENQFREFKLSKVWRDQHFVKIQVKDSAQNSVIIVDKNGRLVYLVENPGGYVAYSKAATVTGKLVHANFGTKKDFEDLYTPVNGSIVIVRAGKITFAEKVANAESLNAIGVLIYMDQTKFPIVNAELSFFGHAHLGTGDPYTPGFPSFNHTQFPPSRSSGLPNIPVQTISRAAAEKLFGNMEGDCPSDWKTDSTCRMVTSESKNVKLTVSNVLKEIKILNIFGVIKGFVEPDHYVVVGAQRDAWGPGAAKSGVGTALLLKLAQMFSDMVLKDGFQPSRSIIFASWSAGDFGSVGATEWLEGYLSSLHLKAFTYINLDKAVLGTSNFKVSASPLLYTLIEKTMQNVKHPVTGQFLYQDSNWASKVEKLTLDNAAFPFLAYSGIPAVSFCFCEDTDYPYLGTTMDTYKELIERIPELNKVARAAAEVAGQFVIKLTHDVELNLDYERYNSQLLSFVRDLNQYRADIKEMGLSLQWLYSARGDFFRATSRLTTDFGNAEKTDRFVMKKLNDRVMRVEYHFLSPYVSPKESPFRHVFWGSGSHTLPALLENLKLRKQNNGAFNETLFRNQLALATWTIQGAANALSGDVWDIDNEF
Experimental: (§1) For each of the various synthesized peptides, the intermolecular interaction of the peptide with the transferrin receptor (hTfR) was tested by surface plasmon resonance (SPR) according to the following method. The specific test method is as follows.
(§2) An NTA sensor chip (Global Life Sciences Technologies Japan) was inserted in a Biacore T200 (Global Life Sciences Technologies Japan) and a prime operation was performed 3 times with a running buffer: 10 mM HEPES pH 8.0 (Nacalai Tesque), 150 mM NaCl (Nacalai Tesque), 0.05% Tween 20 (Nacalai Tesque), 0.1% BSA (Sigma-Aldrich), 1.0% DMSO (FUJIFILM Wako Pure Chemical) to create an Equilibration state at a flow rate of 30 µL/min. After reacting with 350 mM EDTA solution for 60 seconds at a flow rate of 10 µL/min then reacting with 0.5 mM NiCl₂ solution (Kishida Chemical) for 60 seconds at a flow rate of 10 µL/min, the NTA sensor chip was washed with 3 mM EDTA solution (Nacalai Tesque) for 60 seconds at a flow rate of 10 µL/min. After mixing 50 µL each of 60 mM EDC solution (Global Life Sciences Technologies Japan) and 650 mM NHS solution (Global Life Sciences Technologies Japan), the mixture was reacted for 420 seconds at a flow rate of 10 µL/min. […] An obtained sensorgram was subjected to curve fitting using the least-squares method, and the binding of the peptide to hTfR was evaluated by obtaining KD values.

[2] = target: T1, human transferrin receptor (hTfR); test: SPR, hTfR immobilised
Experimental: An NTA sensor chip (Global Life Sciences Technologies Japan) was inserted in a Biacore T200 (Global Life Sciences Technologies Japan) and a prime operation was performed 3 times with a running buffer: 10 mM HEPES pH 8.0 (Nacalai Tesque), 150 mM NaCl (Nacalai Tesque), 0.05% Tween 20 (Nacalai Tesque), 0.1% BSA (Sigma-Aldrich), 1.0% DMSO (FUJIFILM Wako Pure Chemical) to create an Equilibration state at a flow rate of 30 µL/min. After reacting with 350 mM EDTA solution for 60 seconds at a flow rate of 10 µL/min then reacting with 0.5 mM NiCl₂ solution (Kishida Chemical) for 60 seconds at a flow rate of 10 µL/min, the NTA sensor chip was washed with 3 mM EDTA solution (Nacalai Tesque) for 60 seconds at a flow rate of 10 µL/min. After mixing 50 µL each of 60 mM EDC solution (Global Life Sciences Technologies Japan) and 650 mM NHS solution (Global Life Sciences Technologies Japan), the mixture was reacted for 420 seconds at a flow rate of 10 µL/min. By diluting with the running buffer, 150 µL of 3.2 µM hTfR solution was prepared and used for reaction for 600 seconds at a flow rate of 10 µL/min, thereby immobilizing hTfR on the NTA sensor chip. […] An obtained sensorgram was subjected to curve fitting using the least-squares method, and the binding of the peptide to hTfR was evaluated by obtaining KD values.

[3] = target: T1, human transferrin receptor (hTfR); test: SPR in accordance with Example 2
Experimental: as §1, §2

B1: hTfRNo.894FLIP-vivotag750 (peptide)
peptide: {CH2CO}-A[NMeY]YRRIIYYNWVFVC-{PEG11′-VivoTag750}
modifications: thioether N-15 (inferred); not fully specified; printed as ClAc-Ala-MeTyr-Tyr-Arg-Arg-Ile-Ile-Tyr-Tyr-Asn-Trp-Val-Phe-Val-Cys
notes: also called hTfRNo.894FLIP-PEG11-Vivotag750
binding result [1]: no binding

B2: hTfR_000894_PEG11_(VivoTag) (peptide)
peptide: {CH2CO}-AVFVWNYYIIRRY[NMeY]C
modifications: thioether N-15; not fully specified (C-terminus); also: linker PEG11 in text, PEG12 in table
notes: also called hTfRNo.894-vivotag750; hTfRNo.894-PEG11-Vivotag750
Kd [1]: 1.09 nM

B3: Flip_894_PEG4_KFITC (peptide)
peptide: {CH2CO}-A[NMeY]F[dR][Aib]IY[Tyr(Me)]YN[NMeW]V[NMePhe(3-Cl)]VC
modifications: thioether N-15; not fully specified (C-terminus); also: PEG4c not defined
notes: also called Flip894_variant61_PEG4dk5FAM; Flip894_variant61_PEG4dk5FA
binding result [2]: no binding

{CH2CO}-A[NMeY]YRRIIYYNWVFVC-{PEG11′-K(FITC)} (thioether N-15) [FLIP_000894_PEG11_K_FITC]
binding result [2]: no binding

AVFVWNYYIIRRYYC (14 MeTyr; C-term PEG11-K(FITC); cyclic 1-15 thioether) [JCR_hTfR_000894_PEG11_K(FITC)]
Kd [3]: 0.28 nM
